Measured values: the supplement of paper PMC5998384

Legend:
HeLa Kyoto [1] = test: solubility in G1/S (NP-40 vs SDS abundance) (log2 ratio); higher = more soluble; conditions: cell cycle stage: G1/S
HeLa Kyoto [2] = test: melting temperature (median over replicates), in situ; higher = more thermally stable
HeLa Kyoto [3] = test: thermal stability score vs G1/S (z-score of summed log2 fold changes over temperatures); higher = more thermally stable than in G1/S
HeLa Kyoto [4] = test: solubility change mitosis vs G1/S (difference of NP-40 vs SDS log2 ratios) (log2 ratio difference); higher = more soluble in mitosis
[5] = cell cycle stage: early G1 (4.5 h after nocodazole release)
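Wherever melting temperature (median over replicates), in situ is given: HeLa Kyoto cells synchronized by double thymidine or nocodazole block, proteins quantified by TMT10plex mass spectrometry, three independent biological replicates.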
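Wherever solubility change mitosis vs G1/S (difference of NP-40 vs SDS log2 ratios) is given: synchronized HeLa Kyoto cells (double thymidine block for G1/S, nocodazole release for mitosis), protein amounts in NP-40 versus SDS lysates quantified by mass spectrometry, three biological replicates.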
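Wherever solubility in G1/S (NP-40 vs SDS abundance) is given: HeLa Kyoto cells arrested at G1/S by double thymidine block, proteins quantified by TMT10plex mass spectrometry in mild NP-40 versus SDS extracts, three biological replicates.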
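Wherever thermal stability score vs G1/S (z-score of summed log2 fold changes over temperatures) is given: synchronized HeLa Kyoto cells, proteins quantified by TMT10plex mass spectrometry, three biological replicates, mitosis taken 0.5 h after nocodazole release, G1/S directly after double thymidine block.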

Substance	solubility in G1/S (log2) (HeLa Kyoto [1])	melting temperature (HeLa Kyoto [2]; cell cycle stage: G1/S)	melting temperature (HeLa Kyoto [2]; cell cycle stage: mitosis)	thermal stability score (HeLa Kyoto [3]; [5])	thermal stability score (HeLa Kyoto [3]; cell cycle stage: mitosis)	solubility change mitosis (log2) (HeLa Kyoto [4])
MGDREQLLQRARLAEQAERYDDMASAMKAVTELNEPLSNEDRNLLSVAYKNVVGARRSSWRVISSIEQKTMADGNEKKLEKVKAYREKIEKELETVCNDVLSLLDKFLIKNCNDFQYESKVFYLKMKGDYYRYLAEVASGEKKNSVVEASEAAYKEAFEISKEQMQPTHPIRLGLALNFSVFYYEIQNAPEQACLLAKQAFDDAIAELDTLNEDSYKDSTLIMQLLRDNLTLWTSDQQDEEAGEGN [YWHAH]	0.565	52.5 °C	52.6 °C	-1.65	-1.58	0.0669
MASLDRVKVLVLGDSGVGKSSLVHLLCQNQVLGNPSWTVGCSVDVRVHDYKEGTPEEKTYYIELWDVGGSVGSASSVKSTRAVFYNSVNGIIFVHDLTNKKSSQNLRRWSLEALNRDLVPTGVLVTNGDYDQEQFADNQIPLLVIGTKLDQIHETKRHEVLTRTAFLAEDFNPEEINLDCTNPRYLAAGSSNAVKLSRFFDKVIEKRYFLREGNQIPGFPDRKRFGAGTLKSLHYD [RABL3]	0.0735	52 °C	51.9 °C	-0.0942	-1.09	-0.0274
WIZ	-0.0213	50.4 °C	50.8 °C	0.511	-0.305	0.321
MKVTVCFGRTRVVVPCGDGHMKVFSLIQQAVTRYRKAIAKDPNYWIQVHRLEHGDGGILDLDDILCDVADDKDRLVAVFDEQDPHHGGDGTSASSTGTQSPEIFGSELGTNNVSAFQPYQATSEIEVTPSVLRANMPLHVRRSSDPALIGLSTSVSDSNFSSEEPSRKNPTRWSTTAGFLKQNTAGSPKTCDRKKDENYRSLPRDTSNWSNQFQRDNARSSLSASHPMVGKWLEKQEQDEDGTEEDNSRVEPVGHADTGLEHIPNFSLDDMVKLVEVPNDGGPLGIHVVPFSARGGRTLGLLVKRLEKGGKAEHENLFRENDCIVRINDGDLRNRRFEQAQHMFRQAMRTPIIWFHVVPAANKEQYEQLSQSEKNNYYSSRFSPDSQYIDNRSVNSAGLHTVQRAPRLNHPPEQIDSHSRLPHSAHPSGKPPSAPASAPQNVFSTTVSSGYNTKKIGKRLNIQLKKGTEGLGFSITSRDVTIGGSAPIYVKNILPRGAAIQDGRLKAGDRLIEVNGVDLVGKSQEEVVSLLRSTKMEGTVSLLVFRQEDAFHPRELNAEPSQMQIPKETKAEDEDIVLTPDGTREFLTFEVPLNDSGSAGLGVSVKGNRSKENHADLGIFVKSIINGGAASKDGRLRVNDQLIAVNGESLLGKTNQDAMETLRRSMSTEGNKRGMIQLIVARRISKCNELKSPGSPPGPELPIETALDDRERRISHSLYSGIEGLDESPSRNAALSRIMGESGKYQLSPTVNMPQDDTVIIEDDRLPVLPPHLSDQSSSSSHDDVGFVTADAGTWAKAAISDSADCSLSPDVDPVLAFQREGFGRQSMSEKRTKQFSDASQLDFVKTRKSKSMDLGIADETKLNTVDDQKAGSPSRDVGPSLGLKKSSSLESLQTAVAEVTLNGDIPFHRPRPRIIRGRGCNESFRAAIDKSYDKPAVDDDDEGMETLEEDTEESSRSGRESVSTASDQPSHSLERQMNGNQEKGDKTDRKKDKTGKEKKKDRDKEKDKMKAKKGMLKGLGDMFRFGKHRKDDKIEKTGKIKIQESFTSEEERIRMKQEQERIQAKTREFRERQARERDYAEIQDFHRTFGCDDELMYGGVSSYEGSMALNARPQSPREGHMMDALYAQVKKPRNSKPSPVDSNRSTPSNHDRIQRLRQEFQQAKQDEDVEDRRRTYSFEQPWPNARPATQSGRHSVSVEVQMQRQRQEERESSQQAQRQYSSLPRQSRKNASSVSQDSWEQNYSPGEGFQSAKENPRYSSYQGSRNGYLGGHGFNARVMLETQELLRQEQRRKEQQMKKQPPSEGPSNYDSYKKVQDPSYAPPKGPFRQDVPPSPSQVARLNRLQTPEKGRPFYS [PARD3]	-0.137	47.7 °C	49.3 °C	0.772	2.38	0.111
MGDSDDEYDRRRRDKFRRERSDYDRSRERDERRRGDDWNDREWDRGRERRSRGEYRDYDRNRRERFSPPRHELSPPQKRMRRDWDEHSSDPYHSGYEMPYAGGGGGPTYGPPQPWGHPDVHIMQHHVLPIQARLGSIAEIDLGVPPPVMKTFKEFLLSLDDSVDETEAVKRYNDYKLDFRRQQMQDFFLAHKDEEWFRSKYHPDEVGKRRQEARGALQNRLRVFLSLMETGWFDNLLLDIDKADAIVKMLDAAVIKMEGGTENDLRILEQEEEEEQAGKPGEPSKKEEGRAGAGLGDGERKTNDKDEKKEDGKQAENDSSNDDKTKKSEGDGDKEEKKEDSEKEAKKSSKKRNRKHSGDDSFDEGSVSESESESESGQAEEEKEEAEEALKEKEKPKEEEWEKPKDAAGLECKPRPLHKTCSLFMRNIAPNISRAEIISLCKRYPGFMRVALSEPQPERRFFRRGWVTFDRSVNIKEICWNLQNIRLRECELSPGVNRDLTRRVRNINGITQHKQIVRNDIKLAAKLIHTLDDRTQLWASEPGTPPLPTSLPSQNPILKNITDYLIEEVSAEEEELLGSSGGAPPEEPPKEGNPAEINVERDEKLIKVLDKLLLYLRIVHSLDYYNTCEYPNEDEMPNRCGIIHVRGPMPPNRISHGEVLEWQKTFEEKLTPLLSVRESLSEEEAQKMGRKDPEQEVEKFVTSNTQELGKDKWLCPLSGKKFKGPEFVRKHIFNKHAEKIEEVKKEVAFFNNFLTDAKRPALPEIKPAQPPGPAQILPPGLTPGLPYPHQTPQGLMPYGQPRPPILGYGAGAVRPAVPTGGPPYPHAPYGAGRGNYDAFRGQGGYPGKPRNRMVRGDPRAIVEYRDLDAPDDVDFF [SRRT]	-0.305	48.2 °C	49.1 °C	2.79	6.86	0.214
MVDYSVWDHIEVSDDEDETHPNIDTASLFRWRHQARVERMEQFQKEKEELDRGCRECKRKVAECQRKLKELEVAEGGKAELERLQAEAQQLRKEERSWEQKLEEMRKKEKSMPWNVDTLSKDGFSKSMVNTKPEKTEEDSEEVREQKHKTFVEKYEKQIKHFGMLRRWDDSQKYLSDNVHLVCEETANYLVIWCIDLEVEEKCALMEQVAHQTIVMQFILELAKSLKVDPRACFRQFFTKIKTADRQYMEGFNDELEAFKERVRGRAKLRIEKAMKEYEEEERKKRLGPGGLDPVEVYESLPEELQKCFDVKDVQMLQDAISKMDPTDAKYHMQRCIDSGLWVPNSKASEAKEGEEAGPGDPLLEAVPKTGDEKDVSV [CDC37]	0.24	52.1 °C	52.6 °C	0.438	-0.732	0.0658
MDSRVSELFGGCCRPGGGPAVGGTLKARGAGSSSGCGGPKGKKKNGRNRGGKANNPPYLPPEAEDGNIEYKLKLVNPSQYRFEHLVTQMKWRLQEGRGEAVYQIGVEDNGLLVGLAEEEMRASLKTLHRMAEKVGADITVLREREVDYDSDMPRKITEVLVRKVPDNQQFLDLRVAVLGNVDSGKSTLLGVLTQGELDNGRGRARLNLFRHLHEIQSGRTSSISFEILGFNSKGEVVNYSDSRTAEEICESSSKMITFIDLAGHHKYLHTTIFGLTSYCPDCALLLVSANTGIAGTTREHLGLALALKVPFFIVVSKIDLCAKTTVERTVRQLERVLKQPGCHKVPMLVTSEDDAVTAAQQFAQSPNVTPIFTLSSVSGESLDLLKVFLNILPPLTNSKEQEELMQQLTEFQVDEIYTVPEVGTVVGGTLSSGICREGDQLVVGPTDDGCFLELRVCSIQRNRSACRVLRAGQAATLALGDFDRALLRKGMVMVSPEMNPTICSVFEAEIVLLFHATTFRRGFQVTVHVGNVRQTAVVEKIHAKDKLRTGEKAVVRFRFLKHPEYLKVGAKLLFREGVTKGIGHVTDVQAITAGEAQANMGF [GTPBP2]	-0.711	49.9 °C	50.1 °C	0.507	0.439	0.127
MVSWMICRLVVLVFGMLCPAYASYKAVKTKNIREYVRWMMYWIVFALFMAAEIVTDIFISWFPFYYEIKMAFVLWLLSPYTKGASLLYRKFVHPSLSRHEKEIDAYIVQAKERSYETVLSFGKRGLNIAASAAVQAATKSQGALAGRLRSFSMQDLRSISDAPAPAYHDPLYLEDQVSHRRPPIGYRAGGLQDSDTEDECWSDTEAVPRAPARPREKPLIRSQSLRVVKRKPPVREGTSRSLKVRTRKKTVPSDVDS [REEP4]	0.0372	53.4 °C	53.2 °C	-1.06	-1.58	-0.135
MARHVFLTGPPGVGKTTLIHKASEVLKSSGVPVDGFYTEEVRQGGRRIGFDVVTLSGTRGPLSRVGLEPPPGKRECRVGQYVVDLTSFEQLALPVLRNADCSSGPGQRVCVIDEIGKMELFSQLFIQAVRQTLSTPGTIILGTIPVPKGKPLALVEEIRNRKDVKVFNVTKENRNHLLPDIVTCVQSSRK [NTPCR]	0.569	52.6 °C	53.4 °C	1.23	0.656	0.0287
